# Results from patent publication US20070122903A1, “AMNIOTIC FLUID DERIVED CELLS” (priority 2005, published 2007).
# Tested on: cell line AFCA007 Clone A (AF-I)
# Assay: Differentiation of cells into multiple endocrine lineages (collagen type I/matrigel transwell culture with growth factors)
# Type: cell-based, human
# Conditions: 14 days; for expression of HNF-3 beta: DMEM + 5% FBS
# Experimental: Cells from the cell line AFCA007 Clone A (AF-I) at passage 8 were embedded in collagen type I (Becton Dickinson, CA) with 1% growth-factor reduced matrigel matrix (Becton Dickinson), and seeded into 6-well transwell insert at 5×10^5 cells per well. The bottom well was seeded with human aortic endothelial cells passage 6 (Cambrex. MD). Cells were cultured with DMEM medium supplemented with 5% FBS and growth factors, which includes Cyclopamine, bFGF, EGF, BMP4-7, Activin A, Exendin 4, FGF4, all-trans retinoic acid and γ-secretase inhibitors for 14 days. Cultures were fed every other day. […] Treatment of cells with BMPs at high concentration, 50 ng/ml, also up-regualted the GATA4 expression.
Molecule,expression of HNF-3 beta,PDX-1 expression (50 ng/ml)
"Activin A: growth factor added to the differentiation medium (protein, UniProt P08476 311-426, looked up, Inhibin beta A chain, growth factor added to the differentiation medium) Inhibin beta A chain: GLECDGKVNICCKKQFFVSFKDIGWNDWIIAPSGYHANYCEGECPSHIAGTSGSSLSFHSTVINHYRMRGHSPFANLKSCCVPTKLRPMSMLYYDDGQNIIKKDIQNMIVEECGCS",up-regulated,–
"FGF4: growth factor added to the differentiation medium (protein, UniProt P08620 31-206, looked up) Fibroblast growth factor 4: APTAPNGTLEAELERRWESLVALSLARLPVAAQPKEAAVQSGAGDYLLGIKRLRRLYCNVGIGFHLQALPDGRIGGAHADTRDSLLELSPVERGVVSIFGVASRFFVAMSSKGKLYGSPFFTDECTFKEILLPNNYNAYESYKYPGMFIALSKNGKTKKGNRVSPTMKVTHFLPRL",–,up-regulation
"BMP4: bone morphogenic protein, growth factor added to the differentiation medium (protein, UniProt P12644 293-408, looked up) Bone morphogenetic protein 4: SPKHHSQRARKKNKNCRRHSLYVDFSDVGWNDWIVAPPGYQAFYCHGDCPFPLADHLNSTNHAIVQTLVNSVNSSIPKACCVPTELSAISMLYLDEYDKVVLKNYQEMVVEGCGCR",up-regulated,–
